Measurements from US6410329.

What was measured:
Test in all cases: cell_activity
[1] = system: VirD1 (Agrobacterium tumefaciens); conditions: VirD1 alone
[2] = biological target: T1, VirD2-VirD1 translational fusion (p35SD2D1) (Agrobacterium tumefaciens) (UniProt P06668)
T1 sequence: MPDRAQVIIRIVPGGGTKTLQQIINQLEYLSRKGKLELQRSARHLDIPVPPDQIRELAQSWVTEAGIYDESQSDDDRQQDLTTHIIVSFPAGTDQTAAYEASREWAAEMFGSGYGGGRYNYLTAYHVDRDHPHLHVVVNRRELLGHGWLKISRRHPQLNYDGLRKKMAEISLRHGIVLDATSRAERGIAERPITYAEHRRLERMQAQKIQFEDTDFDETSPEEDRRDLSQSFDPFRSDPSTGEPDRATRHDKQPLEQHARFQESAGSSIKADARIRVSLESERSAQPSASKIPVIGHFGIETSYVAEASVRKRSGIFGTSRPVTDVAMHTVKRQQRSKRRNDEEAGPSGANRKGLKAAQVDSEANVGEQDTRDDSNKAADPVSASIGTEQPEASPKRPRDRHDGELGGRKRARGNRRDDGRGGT

[3] = biological target: T2, VirD1-VirD2 translational fusion (p35SD1D2) (Agrobacterium tumefaciens) (UniProt P06668)
T2 sequence: T1 sequence

[4] = maize, pwBarRBLuc geminivirus vector

Row | Sequence | activity (% of control luciferase) ([1]; tobacco) | activity (% of control luciferase) ([2]; maize, 1 ug + 4 ug) | activity (% of control luciferase) ([2]; tobacco, 0.5 ug + 2 ug) | activity (% of control luciferase) ([1]; maize) | activity (% of control luciferase) ([3]; maize, 1 ug + 4 ug) | activity (% of control luciferase) ([3]; tobacco, 0.5 ug + 2 ug) | activity (% of control luciferase) [2, 4] | activity (Luc/GUS ratio) ([1]; maize, target alone 15.0) | activity (% of control luciferase) [3, 4]
1 | ATCCGGCAGGATATATACCGTTGTAATTCTGCA (double strand) [T-DNA right border reversed, pRB(-)Luc] | 95 | – | – | – | – | – | – | – | –
2 | ATCCGGCAGGATATATACCGTTGTAATTCTGCA (double strand) [T-DNA right border duplex, pRB(+)Luc] | 72 | 2.6 | 5 | 105 | 2.4 | 5.4 | – | – | –
3 | ATCCGGCAGGATATATACCGTTGTAATTCTGCA (double strand) [right border in WDV replicon pwi35SRBLuc] | – | – | – | – | – | – | 3.6 | 8.1 | 6
